The data set deals with the molecule itself. As to the kind of experiment: NMR 15N R2 relaxation.

B1: HIF-1α PAS-B domain single mutant (R245E), construct 947 (domain or fragment)
chain: not shown
For the protein B1, the binding result is given as “binds”.

The record behind these values is PMC3376167 (The Journal of Physical Chemistry. B, 2012).
